Data reported in US20180127503A1 (EUREKA THERAPEUTICS, published 2018).
No end group written: not given here. *: point of attachment. Biotin = O=C1N[C@H]2[C@H](CS[C@H]2CCCCC(=O)*)N1

B1: ROR2-23 full length human IgG1 antibody (antibody, V domains shown)
VH: EVQLVQSGAEVKKPGESLKISCQGSGYRFSKYWIGWVRQMPGKGLEWMGIIYPGDSDTRYSPSFQGQVTISADKSISTAYLQWSSLKASDTAMYYCARSFSSFIYDYWGQGTLVTVSS
VL: ETTLTQSPGTLSVSPGERATLSCRASQSVSSNLAWYQQKRGQAPRLLIYGASTRATGIPVRFSGSGSGTEFTLTISRLEPEDFAVYYCQQYGRSPLTFGGGTKVDIKR
notes: The light chain of clone 023 is labelled kappa; also called clone #23; clone #023 IgG1
B2: ROR2-240 full length human IgG1 antibody (antibody, V domains shown)
VH: QITLKESGPELVKPTQTLTLTCTFSGFSLSTSGMSVSWIRQPPGKALEWLARIDWDDDKYYSTSLKTRLTISKDTSKNQVVLTMTNTDPVDTATYYCARGFYLAYGSYDSWGQGTLVTVSS
VL: QSALTQPASVSGSPGQSITISCTGTSGDVGGYNYVSWYQHHPGKAPKLIIYDVNKRPSGFSDRFSGSKSGNTASLTISGLQAEDEADYYCSSYTSTSTVFGGGTKLTVLG
notes: also called clone #240 IgG1
B3: ROR2-241 full length human IgG1 antibody (antibody, V domains shown)
VH: EVQLVQSGAEVKKPGASVKVSCKASGYTFTNYYIHWVRQAPGQGLEWMGIINPTSGRTRYAQRFQGRVTMTRDTSTNTVYMDLSSLRSEDTAMYYCARSGYYWGVNGDQWGQGTLVTVSS
VL: SYELTQPLSVSVALGQTARITCGGNNIGSKNVHWYQQKPGQAPVLVIYRDSNRPSGIPERFSGSNSGNTATLTISRAQAGDEADYYCQVWDSSIVVFGGGTKLTVLG
B4: ROR2-27 full length human IgG1 antibody (antibody, V domains shown)
VH: QVQLVESGAEVKKPGESLKISCKASGYSFSNYWIGWVRQMPGKGLEWMGIIYPDDSDTRYSPSFQGQVTISADKSISTAYLQWYSLKVADTAKYYCVRPRGAFDIWGQGTTVTVSS
VL: QSVLTQPPSVSGAPGQRVTISCTGSSSNIGAGHAVHWYQQLPGTAPKLLIYDNANRPSGVPDRFSGSQSGTSASLAITGLQTGDEADYYCGTWDDSPSAYVFGTGTKVTVLG
notes: also called clone #27; clone #027 IgG1
B5: ROR2-90 full length human IgG1 antibody (antibody, V domains shown)
VH: EVQLVESGPGLVKPSQTLSLTCTVSGGSISSGGYYWSWIRQHPGKGLEWIGYIYYSGSTYYNPSLKSRVTISVDTSKNQFSLKLSSVTAADTAMYYCARGGLYWTYSQDVWGQGTLVTVSS
VL: QPVLTQPPSASGTPGQRVTISCSGSSSNIGSDYVSWYQQLPGTAPKLLIYRNDQRPSGVPDRFSGSKSGTSASLAISGLRSEDEADYYCVAWDDSLSGYVFGSGTKVTVLG
notes: also called clone #90; antibody #90

What was measured:
[1] = biological target: T1, human ROR2 expressed on the cell surface (human, UniProt Q01974 34-943); assay: flow cytometry, HEP G2 cells (HCC); parameters: unit not given here
T1 construct: Endogenous ROR2 of human tumour cell lines; also called cell surface ROR2; ROR2 on tumour cell lines
Experimental: (§1) Human tumour cell lines were authenticated using short tandem repeat (STR) analysis. They were cultured in RPMI1640 (Cellgro) supplemented with 10% fetal bovine serum (FBS, Life Technologies) at 37° C. in a 5% CO₂ humidified incubator. They were harvested, washed in PBS and reacted with ROR2-IgG at 1 ug/10⁶ tumour cells on ice for an hour. #901-IgG was used as a negative control at the same dose. After washing, a secondary PE-conjugated goat anti-human IgG, Fcγ fragment specific (1:100, Jackson ImmunoResearch) was added for another 30 min incubation. Staining was analyzed on a FACSCalibur (BD Biosciences). ROR2 (full length) antibody binding towards multiple cancer cell lines were compared with Rituxan and Herceptin antibodies. The cancer cell lines were derived from breast cancer, colorectal cancer, mesothelioma, hepatocellular carcinoma, ovarian cancer, osteosarcoma, neuroblastoma, etc. ROR2 #90 antibody could recognize most of the tumour cells tested, and in some cases, the binding intensity was higher than Herceptin (see Tables 8 to 10).

[2] = biological target: T1, human ROR2 expressed on the cell surface; assay: flow cytometry, MCF7 cells (breast CA); parameters: unit not given here
Experimental: as §1

[3] = biological target: T1, human ROR2 expressed on the cell surface; assay: flow cytometry, CHP100 cells (EW/PNET); parameters: unit not given here
Experimental: as §1

[4] = biological target: T1, human ROR2 expressed on the cell surface; assay: flow cytometry, SKES-1 cells (EW/PNET); parameters: unit not given here
Experimental: as §1

[5] = biological target: T1, human ROR2 expressed on the cell surface; assay: flow cytometry, AU565 cells (breast CA); parameters: unit not given here
Experimental: as §1

[6] = biological target: T1, human ROR2 expressed on the cell surface; assay: flow cytometry, HTB27 cells (breast CA); parameters: unit not given here
Experimental: as §1

[7] = biological target: T1, human ROR2 expressed on the cell surface; assay: flow cytometry, HTB37-Caco2 cells (CRC); parameters: unit not given here
Experimental: as §1

[8] = biological target: T1, human ROR2 expressed on the cell surface; assay: flow cytometry, U251 LUC cells (glioma); parameters: unit not given here
Experimental: as §1

[9] = biological target: T1, human ROR2 expressed on the cell surface; assay: flow cytometry, HTB132 cells (breast CA); parameters: unit not given here
Experimental: as §1

[10] = biological target: T1, human ROR2 expressed on the cell surface; assay: flow cytometry, SKMEL-5 cells (melanoma); parameters: unit not given here
Experimental: as §1

[11] = biological target: T1, human ROR2 expressed on the cell surface; assay: flow cytometry, SKMEL28 cells (melanoma); parameters: reference not given here
Experimental: as §1

[12] = biological target: T1, human ROR2 expressed on the cell surface; assay: flow cytometry, NB5 cells (neuroblastoma); parameters: unit not given here
Experimental: as §1

[13] = biological target: T1, human ROR2 expressed on the cell surface; assay: flow cytometry, MCF7-Luc cells (breast CA); parameters: unit not given here
Experimental: as §1

[14] = biological target: T1, human ROR2 expressed on the cell surface; assay: flow cytometry, RG187 cells (osteosarcoma); parameters: unit not given here
Experimental: as §1

[15] = biological target: T1, human ROR2 expressed on the cell surface; assay: flow cytometry, BE(2)S cells (neuroblastoma); parameters: unit not given here
Experimental: as §1

[16] = biological target: T2, biotin-SGSG-KTITATGVLFVRLGP ROR2 array peptide (human); assay: ELISA on biotinylated ROR2 peptide array
T2 construct: Peptide of the overlapping ROR2 peptide array, immobilised on streptavidin plates
T2 peptide: Biotin-SGSGKTITATGVLFVRLGP
Experimental: To better understand the structural basis of the ROR2-specific antibody as a drug candidate, a standard epitope mapping was performed by ELISA against a ROR2 peptide array. The peptide array covers the whole length of the ROR2 protein through 96 overlapping peptides ([…] each with 4 amino acids worth of space between them). The peptides were biotinlyated at the N-terminal to immobilize them onto streptavidin ELISA plates. A spacer (SGSG) was used to provide flexibility. The space was inserted at the N-terminal biotin-SGSG-15 amino acids. ELISA assays were performed with the full length ROR2 antibodies as the primary antibody and an anti-human Fc AP-conjugated antibody was used for detection. […] FIG. 12 indicates the epitope position in ROR2 primary structure. This sequence is not shared by ROR1 and not found in human proteins by PBLAST.

T1 sequence (Q01974 34-943 limits assumed): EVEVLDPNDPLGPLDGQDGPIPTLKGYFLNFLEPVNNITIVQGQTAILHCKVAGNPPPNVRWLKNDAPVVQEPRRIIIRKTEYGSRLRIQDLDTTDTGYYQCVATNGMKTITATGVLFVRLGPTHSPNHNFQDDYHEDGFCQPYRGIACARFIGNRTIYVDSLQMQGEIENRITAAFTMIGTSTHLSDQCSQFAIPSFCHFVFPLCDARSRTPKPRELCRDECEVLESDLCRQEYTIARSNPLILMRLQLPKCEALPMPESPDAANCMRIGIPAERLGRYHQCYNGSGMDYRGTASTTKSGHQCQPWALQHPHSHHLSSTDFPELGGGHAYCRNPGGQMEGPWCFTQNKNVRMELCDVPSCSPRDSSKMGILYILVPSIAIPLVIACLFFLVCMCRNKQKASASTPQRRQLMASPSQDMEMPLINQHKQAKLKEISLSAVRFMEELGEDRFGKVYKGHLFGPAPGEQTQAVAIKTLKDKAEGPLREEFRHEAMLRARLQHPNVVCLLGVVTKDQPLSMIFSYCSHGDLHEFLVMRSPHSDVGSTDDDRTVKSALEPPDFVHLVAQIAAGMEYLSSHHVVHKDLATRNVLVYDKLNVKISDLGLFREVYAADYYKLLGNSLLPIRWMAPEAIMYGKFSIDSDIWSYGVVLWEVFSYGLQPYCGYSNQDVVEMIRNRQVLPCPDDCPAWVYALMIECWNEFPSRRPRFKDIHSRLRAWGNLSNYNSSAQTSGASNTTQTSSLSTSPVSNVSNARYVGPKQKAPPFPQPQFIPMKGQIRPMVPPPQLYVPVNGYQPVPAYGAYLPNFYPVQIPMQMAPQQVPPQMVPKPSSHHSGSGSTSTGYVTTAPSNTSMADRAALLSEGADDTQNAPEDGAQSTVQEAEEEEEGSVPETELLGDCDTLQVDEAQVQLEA

| Binder | binding intensity [1] | binding intensity [2] | binding intensity [3] | binding intensity [4] | binding intensity [5] | binding intensity [6] | binding intensity [7] | binding intensity [8] | binding intensity [9] | binding intensity [10] | binding intensity [11] | binding intensity [12] | binding intensity [13] | binding intensity [14] | binding intensity [15] | binding result [16] |
| --- | --- | --- | --- | --- | --- | --- | --- | --- | --- | --- | --- | --- | --- | --- | --- | --- |
| B1 | 30 | 52 | 30 | 22 | 102 | 58 | 37 | 14 | 5 | 7 | 20 | 32 | 111 | 44 | 26 |  |
| B2 | 4 | 3 | 7 | 5 | 4 | 7 | 6 | 5 | 4 | 1 | 4 | 17 | 39 | 4 | 26 |  |
| B3 | 36 | 21 | 16 | 12 | 83 | 24 | 24 | 120 | 45 | 5 | 20 | 56 | 42 | 29 | 58 |  |
| B4 | 11 | 27 | 18 | 12 | 8 | 11 | 13 | 9 | 8 | 2 | 8 | 20 | 74 | 19 | 21 |  |
| B5 | 49 | 115 | 57 | 28 | 211 | 125 | 91 | 27 | 5 | 8 | 26 | 47 | 190 | 79 | 40 | binds |
